Common to all, as to conditions: both partners purified
In experiment [1] the target is T1, oligomers (AADL) of 100% Aβ(1–42) (Homo sapiens, UniProt P05067).
T1 construct: amyloid beta peptide, residues 1-42; also called Mixed Oligomers (AADL) 0: 100; oligomers consisting of 100% Aβ(1–42); source: 2500 µM Aβ(1–42) added to Ham's F-12 medium, 18 hours at 4 °C, supernatant after centrifugation
Briefly: SPR; Biacore 3000; Aβ oligomers or fibrils captured with pE3-Aβ-specific antibodies (pure pE3-Aβ aggregates) or an N-terminal non-pE3-Aβ-specific antibody (Aβ(1–42) aggregates and mixtures); PBD-C06 antibody injected; Single Cycle Kinetics model; bivalent binding.

The next experiment deals with T2, fibrils of 100% Aβ(1–42) (Homo sapiens, UniProt P05067).
T2 construct: amyloid beta peptide, residues 1-42; also called Mixed Fibrils 0: 100; source: 350 µM Aβ(1–42), diluted to 50 µM, fibrillated 7 days at 37 °C, pH 8.7
The description is as above.

For a further experiment, the target named is T3, Aβ(1–40) monomer (Homo sapiens, UniProt P05067).
T3 construct: amyloid beta peptide, residues 1-40
Briefly: SPR; Biacore 3000; antibody captured on a CM5 chip via immobilised anti-mouse or anti-human antibody; monomeric Aβ peptides injected (240 µl, 30 µl/min), running buffer HBS-EP; 1:1 Langmuir binding model. For orientation: In SPR one partner is held on a chip, and binding of the other changes the refractive index at the surface.

The target of a further experiment is T4, Aβ(3–40) monomer (Homo sapiens, UniProt P05067).
T4 construct: amyloid beta peptide, residues 3-40, N-terminal glutamate not cyclised
Described as above.

B1: murine PBD-C06 precursor antibody (antibody, V domains shown)
VH: EVQLQQSGPELVKPGASMKISCKASGYSFTGYTMNWVKQSHGKNLEWIGLINPYNGVTRYNQKFKGKATLIVDKSSSTAYMELLSLTSEDSAVYYCTREAKREWDETYWGQGTLVTVSA
VL: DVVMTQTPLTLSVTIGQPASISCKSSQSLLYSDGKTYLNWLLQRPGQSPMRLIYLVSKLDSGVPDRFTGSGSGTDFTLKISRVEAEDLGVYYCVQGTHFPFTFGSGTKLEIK
notes: murine hybridoma precursor VH; murine heavy chain constant region; murine hybridoma precursor VL; murine light chain constant region, not described; Whole antibody; also called murine precursor antibody
With B1, the Kd in experiment [1] is 2.02 nM; with fibrils of 100% Aβ(1–42), 1.81 nM; with Aβ(1–40) monomer, 6310 nM; with Aβ(3–40) monomer, 796 nM. Moreover, the koff with Aβ(1–40) monomer and in the experiment with Aβ(3–40) monomer was 0.0025 s⁻¹ throughout. The kon with Aβ(1–40) monomer is 390 M⁻¹ s⁻¹; with Aβ(3–40) monomer it was 3200 M⁻¹ s⁻¹.

The koff is the first-order rate constant of dissociation. A word on the kon: it is a measure of how fast the partners come together. Low readings indicate slower complex formation, high ones faster complex formation.

(Values after article PMC7040040 (Scientific Reports, 2020).)
